For this test, the target named is His-tagged Gins51 wild type (Thermococcus kodakaraensis). As to the kind of experiment: SPR. For orientation: In SPR one partner is held on a chip, and binding of the other changes the refractive index at the surface.

A word on the Kd: it is a measure of binding affinity in units of concentration. Low values mean tighter binding, high ones weaker binding. Take GAN mutant F55A/L57A (enzyme): the dissociation constant (Kd) is 230 nM.

The record behind these values is publication PMC5100581.
